# Assay results taken from patent US20240336686A1 (ELPISCIENCE SUZHOU BIOPHARMA, published 2024).
# Changes are numbered by the printed parent chain.
# B1: Reference anti-SIRPα antibody hu1H9G4 (antibody, human IgG4, V domains shown)
# VH: QVQLVQSGAEVKKPGASVKVSCKASGYTFTSYWITWVKQAPGQGLEWIGDIYPGSGSTNHIEKFKSKATLTVDTSISTAYMELSRLRSDDTAVYYCATGYGSSYGYFDYWGQGTLVTVSS
# VL: DIQMTQSPSSLSASVGDRVTITCRASENIYSYLAWYQQKPGKAPKLLIYTAKTLAEGVPSRFSGSGSGTDFTLTISSLQPEDFATYYCQHQYGPPFTFGQGTKLELK
# B2: Anti-SIRPα antibody C35 (antibody, V domains shown)
# VH: QIQLVQSGPELRKPGETVKISCKASGYSFTNYAMNWVKQAPGKVLKWMGFINTYTGEPTYADDFKGRFAFSLETSASTAYLQINNLKNEDTATYFCTRTRGYYDFDGGAFDYWGQGTSLTVSS
# VL: DIVMTQSQKFMSTSIGDRVSVTCKASQNVGTHLAWYQQKPGQSPKALIFSASYRYIGVPDRFTGSGSGTDFTLTITNVQSEDLAEYFCQQYNTYPLTFGAGTKLELK
# notes: Tested as purified chimeric antibody; also called 035
# B3: Anti-SIRPα antibody C42 (antibody, human IgG4, V domains shown)
# VH: QIQLVQSGPELKKPGETVKISCRASGYTFTTYGMSWVKQAPGKGLRWMGWINTYSGVSTCADDFKGRFAFSLETSATTAYLQIHNLTNEDTATYFCARDPHSYGNSPAWFPYWGQGTLVTVSA
# VL: DIVMTQSQKFMSTTIRDRVSITCKASQNVGISVAWYQQKSGQSPKLLIYSASNRYTGVPDRFTGSGSGTDFTLTISNMQSEDLADYFCQQYSSYPLTFGSGTKLAIK
# notes: Mouse variable regions; also called 042c
# B4: Anti-SIRPα antibody C73 (antibody, human IgG4, V domains shown)
# VH: QIQLVQSGPELKKPGETVKISCKASGYTFTTYGMSWVKQAPGKGLKWMVWINTYSGVPTYADDFKGRFAFSLETSASTSYLQINNLKNEDTATYFCARDPHYYGSSPAWFVYWGQGTLVTVSA
# VL: B3 VL with R16G, K24E, N28I, S32A, S40P, D85N, S93A, L96F, A105E, I106V
# notes: Mouse variable regions; also called 073c; 073C
# B5: Anti-PDL1 antibody C71 (antibody, V domains shown)
# VH: EVQVVESGGGLVQSGGSLKLSCAGSGFTESAGFMVWHRQVPGKERELVALIATPSGSTNYADSVKGRFTISRDNGKNTVYLQMNSLKPEDTAVYYCNIRGYWGQGTLVTVSS
# notes: Heavy chain antibody (single domain variable region); also called Anti-PDL1, C71
# B6: Anti-PDL1/SIRPα bispecific antibody ES019-024 (bispecific antibody, not shown: a dimerising Fc or GST)
# light: QIVLTQSPAIMSASPGEKVTLTCSASSSVSSSYLYWYQQKPGSSPKLWIYSTSNLASGVPARFSGSGSGTSYSLTISSMEAEDAASYFCHQWSSYPYTFGGGTKLEIK
# heavy (part 1 of 2): EVQLQQSGAELVKPGASVKLSCTASGFNIKDYYMHWVKQRTEQGLEWIGRIDPEDGETKYAPKFQGKATITADTSSNTAYLQLSSLTSEDTAVYYCDRGLAYWGQGTLVTVSA
# heavy (part 2 of 2): B5 VH
# B7: Anti-PDL1/SIRPα bispecific antibody ES019-020 (bispecific antibody, not shown: small tags and cut ends; a dimerising Fc or GST)
# light (part 1 of 2): B6 light
# light (part 2 of 2): B5 VH
# heavy: B6 heavy (part 1 of 2)
# Assays:
# [1] = biological target: T1, mFc tagged human SIRPα v1 ECD recombinant protein (human, UniProt P78324 31-373); assay: competitive ELISA; row antibody in excess in solution, coated mAb 042c
# T1 construct: extracellular domain; not shown: mouse Fc tag
# T1 sequence (P78324 31-373): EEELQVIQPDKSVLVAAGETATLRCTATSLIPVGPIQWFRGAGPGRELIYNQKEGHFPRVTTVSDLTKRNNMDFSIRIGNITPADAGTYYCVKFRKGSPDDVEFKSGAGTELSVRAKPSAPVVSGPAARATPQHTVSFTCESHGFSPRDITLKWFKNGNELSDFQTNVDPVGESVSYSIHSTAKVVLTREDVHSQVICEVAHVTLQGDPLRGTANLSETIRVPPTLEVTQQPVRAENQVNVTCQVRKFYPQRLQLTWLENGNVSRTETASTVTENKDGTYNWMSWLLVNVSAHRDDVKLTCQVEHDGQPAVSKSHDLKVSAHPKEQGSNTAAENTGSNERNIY
# Method: (§1) Competitive ELISA assay was used for epitope binning of purified chimeric antibodies. Briefly excessive competitor antibody and mFc tagged human SIRPα v1 ECD recombinant protein were co-incubated with ELISA microplate coated antibody. After washing, HRP labeled anti-mouse Fc 2nd antibody (Sigma) was added and incubated at 37° C. for 1 hour. Then, 100 μl/well of TMB solution (Biotechnology) was added. After incubation for 15 minutes at room temperature, the reaction was stopped by the addition of 50 μl of 1N HCl. OD 450 nm was read. Competition ratio was calculated. The antibodies that can compete each other for binding to SIRPα may have related binding epitopes.
# [2] = biological target: T1, mFc tagged human SIRPα v1 ECD …; assay: competitive ELISA; row antibody in excess in solution, coated mAb 025c
# Method: as §1
# [3] = biological target: T1, mFc tagged human SIRPα v1 ECD …; assay: competitive ELISA; row antibody in excess in solution, coated mAb hu1H9G4
# Method: as §1
# [4] = biological target: T2, human SIRPα v1 ECD recombinant protein (human, UniProt P78324 31-373); assay: competitive ELISA, plate-coated human SIRPα v1 ECD; blocked ligand: mFc tagged human CD47 ECD
# T2 construct: extracellular domain; Coated on the ELISA plate
# T2 sequence (P78324 31-373): as above
# Method: Competitive ELISA assay was used to determine whether the purified chimeric antibodies can block CD47 and SIRPα interaction. Briefly, antibody and mFc tagged human CD47 ECD recombinant protein were co-incubated with ELISA microplate coated human SIRPα v1 ECD recombinant protein. After washing, HRP labeled anti-mouse Fc 2nd antibody (Sigma) was added and incubated at 37° C. for 1 hour. Then, 100 μl/well of TMB solution (Biotechnology) was added. After incubation for 15 minutes at room temperature, the reaction was stopped by the addition of 50 μl of 1N HCl. OD 450 nm was read. Blocking ratio was determined by blockade of human SIRPα ECD recombinant protein binding to ELISA microplate coated human CD47 ECD recombinant protein.
# [5] = biological target: T3, human SIRPα v2 on CHOK1 cells (human, UniProt P78324 31-504); assay: FACS, CHOK1 cells stably expressing human SIRPα v2
# T3 construct: whole, on cells; also called CHOK1-hSIRPα v2; cell surface human SIRPα v2
# T3 sequence (P78324 other isoform, or with tags, fused parts or gaps limits assumed): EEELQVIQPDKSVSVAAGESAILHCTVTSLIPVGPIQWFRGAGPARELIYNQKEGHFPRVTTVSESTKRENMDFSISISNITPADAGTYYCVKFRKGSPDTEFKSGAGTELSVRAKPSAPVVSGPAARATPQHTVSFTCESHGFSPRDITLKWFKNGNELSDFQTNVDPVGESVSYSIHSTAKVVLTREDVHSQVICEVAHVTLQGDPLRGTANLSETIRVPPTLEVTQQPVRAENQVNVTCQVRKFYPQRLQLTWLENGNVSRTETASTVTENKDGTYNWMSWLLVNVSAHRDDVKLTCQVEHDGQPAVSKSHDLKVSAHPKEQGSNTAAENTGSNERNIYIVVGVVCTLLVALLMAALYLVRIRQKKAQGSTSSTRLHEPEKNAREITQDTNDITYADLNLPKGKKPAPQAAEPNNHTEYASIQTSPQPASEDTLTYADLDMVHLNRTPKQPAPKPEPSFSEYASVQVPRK
# Source text: (§2) Binding activity of the purified chimeric antibodies against human SIRPα variants was detected by FACS assay using CHOK1 cells or 293F cells stably expressing human SIRPα v1 and CHOK1 cells stably expressing human SIRPα v2. […] EC₅₀ and top signal calculated using GraphPad Prism9.0.
# [6] = biological target: Full length human SIRPα v1 with beta-gal fragment (ED) at its C-terminal, in K562 cells (human, UniProt P78324 31-504); assay: cell-based or functional assay
# Chain of Full length human SIRPα v1 with beta-gal fragment (ED) at its C-terminal, in K562 cells (P78324 31-504): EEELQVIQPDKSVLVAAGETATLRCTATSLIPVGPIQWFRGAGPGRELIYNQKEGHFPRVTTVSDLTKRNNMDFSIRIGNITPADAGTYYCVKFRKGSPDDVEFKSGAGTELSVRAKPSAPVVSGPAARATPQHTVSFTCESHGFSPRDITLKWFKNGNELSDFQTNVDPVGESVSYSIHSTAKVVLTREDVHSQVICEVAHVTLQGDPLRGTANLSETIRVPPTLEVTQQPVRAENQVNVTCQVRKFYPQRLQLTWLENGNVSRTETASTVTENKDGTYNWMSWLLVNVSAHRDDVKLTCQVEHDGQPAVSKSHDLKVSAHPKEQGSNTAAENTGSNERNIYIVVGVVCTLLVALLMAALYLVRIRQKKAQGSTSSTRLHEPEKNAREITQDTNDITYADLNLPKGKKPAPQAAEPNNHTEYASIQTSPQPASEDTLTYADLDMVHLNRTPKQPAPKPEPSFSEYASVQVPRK
# [7] = biological target: T4, human SIRPα v1 on CHOK1 cells (human, UniProt P78324 31-504); assay: FACS, CHOK1 cells stably expressing human SIRPα v1
# T4 construct: whole, on cells; also called CHOK1-hSIRPα v1; cell surface human SIRPα v1
# T4 sequence (P78324 31-504): as above
# Source text: as §2
# [8] = biological target: T2, human SIRPα v1 ECD recombinant protein; assay: competitive ELISA, plate-coated human SIRPα v1 ECD; blocked ligand: mFc tagged human CD47 ECD; remark: listed apart in the source
# Method: (§3) Competitive ELISA assay was used to determine whether the purified chimeric antibodies can block CD47 and SIRPα interaction. Briefly, antibody and mFc tagged human CD47 ECD recombinant protein were co-incubated with ELISA microplate coated human SIRPα v1 ECD or human SIRPα v2 ECD recombinant protein. The concentration of soluble ECD of CD47 is 25 nM, and the concentration of soluble ECD of SIRPα is 20 nM. After washing, HRP labeled anti-mouse Fc 2nd antibody (Sigma) was added and incubated at 37° C. for 1 hour. Then, 100 μl/well of TMB solution (Biotechnology) was added. After incubation for 15 minutes at room temperature, the reaction was stopped by the addition of 50 μl of 1N HCl. OD 450 nm was read. Blocking ratio was determined by blockade of human SIRPα ECD recombinant protein binding to ELISA microplate coated human CD47 ECD recombinant protein. All antibodies as tested can block interaction between human CD47 and different human SIRPα variants.
# [9] = biological target: T5, human SIRPα v2 ECD recombinant protein (human); assay: competitive ELISA, plate-coated human SIRPα v2 ECD; blocked ligand: mFc tagged human CD47 ECD
# T5 construct: extracellular domain; Coated on the ELISA plate
# Method: as §3
# human PDL1 on cells [10] = biological target: T6, human PDL1 on cells (human, UniProt Q9NZQ7 19-290); assay: cell-based or functional assay
# T6 sequence (Q9NZQ7 19-290): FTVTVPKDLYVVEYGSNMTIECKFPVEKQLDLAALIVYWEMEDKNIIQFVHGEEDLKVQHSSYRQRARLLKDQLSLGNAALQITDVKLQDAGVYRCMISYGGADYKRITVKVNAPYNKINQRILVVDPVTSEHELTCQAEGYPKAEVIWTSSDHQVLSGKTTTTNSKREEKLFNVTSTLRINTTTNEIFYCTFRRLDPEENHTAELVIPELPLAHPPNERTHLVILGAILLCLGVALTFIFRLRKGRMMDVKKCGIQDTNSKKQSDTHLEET
# [11] = biological target: human PDL1 protein (Octet assay) (human, UniProt Q9NZQ7 19-238); assay: Octet; antibody on sensor, PDL1 protein in solution
# Chain of human PDL1 protein (Octet assay) (Q9NZQ7 19-238 limits assumed): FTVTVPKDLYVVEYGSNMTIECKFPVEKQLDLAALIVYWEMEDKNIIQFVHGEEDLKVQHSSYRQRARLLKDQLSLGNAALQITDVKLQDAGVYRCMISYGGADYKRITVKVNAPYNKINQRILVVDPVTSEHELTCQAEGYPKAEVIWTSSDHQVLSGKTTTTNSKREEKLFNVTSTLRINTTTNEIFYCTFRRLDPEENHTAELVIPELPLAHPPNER
# Method: The Anti-PDL1/SIRPα bispecific protein were characterized for binding affinity against human PDL1 using Octet assay (ForeBio) according to manufacturer's manual, separately. Briefly, the antibodies were coupled on sensors and then the sensors were dipped into PDL1 protein gradients (start at 200 nM, with 2-fold dilution and totally 8 doses). Their binding responses were measured in real-time and results were fit globally.
# human PDL1 on cells [12] = biological target: T6, human PDL1 on cells; assay: FACS, Raji cells overexpressing human PDL1, anti-human Fc-PE, MFI
# Method: Approximately 100,000 Raji cells overexpressing human PDL1 were washed with wash buffer and incubated with 100 ul serial dilution of PDL1/SIRPα bispecific protein for 30 minutes on ice. Cells were then washed twice with wash buffer and incubated with 100 ul of anti-human Fc-PE for 30 minutes on ice. Cells were then washed twice with wash buffer and analyzed on a FACS Canto II analyzer (BD Biosciences). […] The bispecific antibodies ES019-025, ES019-026 bound Raji/hPDL1 similar to anti-PDL1 monoclonal antibody C71 whereas ES019-020, ES019-024 bound Raji/hPDL1 to a lesser extent relative to anti-PDL1, C71.
binder,measurement,setting,value
B1,% Competition,[1],82.6%
same,% Competition,[2],14.5%
same,% Competition,[3],90.5%
B2,IC50 (read off the curve),[4],~2 nM
B3,% Competition,[1],93.9%
same,% Competition,[2],8.9%
same,EC50,[5],4.21 nM
same,TOP MFI,[5],54800 MFI
same,IC50 (SHP-1 recruitment blocking),[6],0.99 nM
same,TOP blocking (SHP-1 recruitment),[6],70%
same,EC50,[7],1.9 nM
same,TOP MFI,[7],73200 MFI
same,IC50,[8],3.6 nM
same,TOP blocking,[8],97.1%
same,% Competition,[3],29.8%
same,IC50,[9],4.49 nM
same,TOP blocking,[9],94.6%
B4,% Competition,[1],93.6%
same,% Competition,[2],9.1%
same,EC50,[5],2.12 nM
same,TOP MFI,[5],47300 MFI
same,IC50 (SHP-1 recruitment blocking),[6],5.66 nM
same,TOP blocking (SHP-1 recruitment),[6],51.2%
same,EC50,[7],1.5 nM
same,TOP MFI,[7],67800 MFI
same,IC50,[8],2.74 nM
same,TOP blocking,[8],95.1%
same,% Competition,[3],37.7%
same,IC50,[9],4.92 nM
same,TOP blocking,[9],82.8%
B5,EC50 (read off the curve),human PDL1 on cells [10],~2 nM
same,Kd,[11],5.31 nM
same,koff,[11],0.00501 s⁻¹
same,kon,[11],942000 M⁻¹ s⁻¹
same,EC50 (read off the curve),human PDL1 on cells [12],~0.2 nM
B6,EC50 (read off the curve),human PDL1 on cells [10],~2 nM
same,Kd,[11],6.56 nM
same,koff,[11],0.00603 s⁻¹
same,kon,[11],920000 M⁻¹ s⁻¹
same,EC50 (read off the curve),human PDL1 on cells [12],~0.6 nM
B7,EC50 (read off the curve),human PDL1 on cells [10],~3 nM
same,Kd,[11],5.54 nM
same,koff,[11],0.00509 s⁻¹
same,kon,[11],918000 M⁻¹ s⁻¹
same,EC50 (read off the curve),human PDL1 on cells [12],~0.6 nM
